According to US20210277068A1 (SHANXI KANGBAO BIOLOGICAL PRODUCT, published 2021):
Where “and” joins values, the source holds several entries; their conditions need not be identical. Equal values may be shown once. * marks the point of attachment. Stearoyl = CCCCCCCCCCCCCCCCCC(=O)*; Palmitoyl = CCCCCCCCCCCCCCCC(=O)*; Lauroyl = CCCCCCCCCCCC(=O)*; Octanoyl = CCCCCCCC(=O)*

T1: N39 (HIV-1, N-terminal acetyl (Ac-); C-terminal amide (-NH2))
T1 peptide: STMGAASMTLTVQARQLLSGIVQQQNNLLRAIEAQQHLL


Tests used:
[1] = biological target: T1, N39; assay: circular dichroism of the 1:1 mixture with N39, 10 µM each in PBS pH 7.2
[2] = biological target: T1, N39; assay: circular dichroism temperature scan at 220 nm of the 1:1 mixture with N39, 10 µM each in PBS pH 7.2

| Binder | helix content of the complex [1] [%] | Tm value of the complex [2] |
| --- | --- | --- |
| Ac-IEELLKKAEEQQKKNEEELKKLEK(Palmitoyl)-NH2 (SMILES CCCCCCCCCCCCCCCC(=O)NCCCC[C@H](NC(=O)[C@H](CCC(=O)O)NC(=O)[C@H](CC(C)C)NC(=O)[C@H](CCCCN)NC(=O)[C@H](CCCCN)NC(=O)[C@H](CC(C)C)NC(=O)[C@H](CCC(=O)O)NC(=O)[C@H](CCC(=O)O)NC(=O)[C@H](CCC(=O)O)NC(=O)[C@H](CC(N)=O)NC(=O)[C@H](CCCCN)NC(=O)[C@H](CCCCN)NC(=O)[C@H](CCC(N)=O)NC(=O)[C@H](CCC(N)=O)NC(=O)[C@H](CCC(=O)O)NC(=O)[C@H](CCC(=O)O)NC(=O)[C@H](C)NC(=O)[C@H](CCCCN)NC(=O)[C@H](CCCCN)NC(=O)[C@H](CC(C)C)NC(=O)[C@H](CC(C)C)NC(=O)[C@H](CCC(=O)O)NC(=O)[C@H](CCC(=O)O)NC(=O)[C@@H](NC(C)=O)[C@@H](C)CC)C(N)=O, N-terminally truncated, based on LP-52; 24 amino acids) [LP-65] | 63 | > 70 °C and 72.1 °C |
| Ac-WEQKIEELLKKAEEQQKKNEEELKK(Palmitoyl)-NH2 (SMILES CCCCCCCCCCCCCCCC(=O)NCCCC[C@H](NC(=O)[C@H](CCCCN)NC(=O)[C@H](CC(C)C)NC(=O)[C@H](CCC(=O)O)NC(=O)[C@H](CCC(=O)O)NC(=O)[C@H](CCC(=O)O)NC(=O)[C@H](CC(N)=O)NC(=O)[C@H](CCCCN)NC(=O)[C@H](CCCCN)NC(=O)[C@H](CCC(N)=O)NC(=O)[C@H](CCC(N)=O)NC(=O)[C@H](CCC(=O)O)NC(=O)[C@H](CCC(=O)O)NC(=O)[C@H](C)NC(=O)[C@H](CCCCN)NC(=O)[C@H](CCCCN)NC(=O)[C@H](CC(C)C)NC(=O)[C@H](CC(C)C)NC(=O)[C@H](CCC(=O)O)NC(=O)[C@H](CCC(=O)O)NC(=O)[C@@H](NC(=O)[C@H](CCCCN)NC(=O)[C@H](CCC(N)=O)NC(=O)[C@H](CCC(=O)O)NC(=O)[C@H](Cc1c[nH]c2ccccc12)NC(C)=O)[C@@H](C)CC)C(N)=O, LP-52 without the C-terminal LEK) [LP-55] |  | 63.1 °C |
| Ac-WEQKIEELLKKAEEQQKKNEEELKKLEK(Octanoyl)-NH2 [LP-82] |  | 65.1 °C |
| Ac-KIEELLKKAEEQQKKNEEELKKLEK(Palmitoyl)-NH2 (SMILES CCCCCCCCCCCCCCCC(=O)NCCCC[C@H](NC(=O)[C@H](CCC(=O)O)NC(=O)[C@H](CC(C)C)NC(=O)[C@H](CCCCN)NC(=O)[C@H](CCCCN)NC(=O)[C@H](CC(C)C)NC(=O)[C@H](CCC(=O)O)NC(=O)[C@H](CCC(=O)O)NC(=O)[C@H](CCC(=O)O)NC(=O)[C@H](CC(N)=O)NC(=O)[C@H](CCCCN)NC(=O)[C@H](CCCCN)NC(=O)[C@H](CCC(N)=O)NC(=O)[C@H](CCC(N)=O)NC(=O)[C@H](CCC(=O)O)NC(=O)[C@H](CCC(=O)O)NC(=O)[C@H](C)NC(=O)[C@H](CCCCN)NC(=O)[C@H](CCCCN)NC(=O)[C@H](CC(C)C)NC(=O)[C@H](CC(C)C)NC(=O)[C@H](CCC(=O)O)NC(=O)[C@H](CCC(=O)O)NC(=O)[C@@H](NC(=O)[C@H](CCCCN)NC(C)=O)[C@@H](C)CC)C(N)=O, N-terminally truncated, based on LP-52) [LP-64] |  | > 70 °C |
| Ac-IEELLKKAEEQQKKNEEELKK(Stearoyl)-NH2 (SMILES CCCCCCCCCCCCCCCCCC(=O)NCCCC[C@H](NC(=O)[C@H](CCCCN)NC(=O)[C@H](CC(C)C)NC(=O)[C@H](CCC(=O)O)NC(=O)[C@H](CCC(=O)O)NC(=O)[C@H](CCC(=O)O)NC(=O)[C@H](CC(N)=O)NC(=O)[C@H](CCCCN)NC(=O)[C@H](CCCCN)NC(=O)[C@H](CCC(N)=O)NC(=O)[C@H](CCC(N)=O)NC(=O)[C@H](CCC(=O)O)NC(=O)[C@H](CCC(=O)O)NC(=O)[C@H](C)NC(=O)[C@H](CCCCN)NC(=O)[C@H](CCCCN)NC(=O)[C@H](CC(C)C)NC(=O)[C@H](CC(C)C)NC(=O)[C@H](CCC(=O)O)NC(=O)[C@H](CCC(=O)O)NC(=O)[C@@H](NC(C)=O)[C@@H](C)CC)C(N)=O) [LP-92] |  | 55.1 °C |
| Ac-WEQKIEELLKKAEEQQKKNEEELKKLEK(Palmitoyl)-NH2 [LP-52] | 63.8 | 79.1 °C |
| Ac-WEQKIEELLKKAEEQQKKNEEELKK(Stearoyl)-NH2 [LP-91] |  | 61 °C |
| Ac-IEELLKKAEEQQKKNEEELKKLEK(Stearoyl)-NH2 [LP-90] |  | 71.1 °C |
| Ac-EQKIEELLKKAEEQQKKNEEELKKLEK(Stearoyl)-NH2 (SMILES CCCCCCCCCCCCCCCCCC(=O)NCCCC[C@H](NC(=O)[C@H](CCC(=O)O)NC(=O)[C@H](CC(C)C)NC(=O)[C@H](CCCCN)NC(=O)[C@H](CCCCN)NC(=O)[C@H](CC(C)C)NC(=O)[C@H](CCC(=O)O)NC(=O)[C@H](CCC(=O)O)NC(=O)[C@H](CCC(=O)O)NC(=O)[C@H](CC(N)=O)NC(=O)[C@H](CCCCN)NC(=O)[C@H](CCCCN)NC(=O)[C@H](CCC(N)=O)NC(=O)[C@H](CCC(N)=O)NC(=O)[C@H](CCC(=O)O)NC(=O)[C@H](CCC(=O)O)NC(=O)[C@H](C)NC(=O)[C@H](CCCCN)NC(=O)[C@H](CCCCN)NC(=O)[C@H](CC(C)C)NC(=O)[C@H](CC(C)C)NC(=O)[C@H](CCC(=O)O)NC(=O)[C@H](CCC(=O)O)NC(=O)[C@@H](NC(=O)[C@H](CCCCN)NC(=O)[C@H](CCC(N)=O)NC(=O)[C@H](CCC(=O)O)NC(C)=O)[C@@H](C)CC)C(N)=O) [LP-88] |  | 76.5 °C |
| Ac-LEANIEELLKKAEEQQKKNEEELKKLEK(Palmitoyl)-NH2 (SMILES CCCCCCCCCCCCCCCC(=O)NCCCC[C@H](NC(=O)[C@H](CCC(=O)O)NC(=O)[C@H](CC(C)C)NC(=O)[C@H](CCCCN)NC(=O)[C@H](CCCCN)NC(=O)[C@H](CC(C)C)NC(=O)[C@H](CCC(=O)O)NC(=O)[C@H](CCC(=O)O)NC(=O)[C@H](CCC(=O)O)NC(=O)[C@H](CC(N)=O)NC(=O)[C@H](CCCCN)NC(=O)[C@H](CCCCN)NC(=O)[C@H](CCC(N)=O)NC(=O)[C@H](CCC(N)=O)NC(=O)[C@H](CCC(=O)O)NC(=O)[C@H](CCC(=O)O)NC(=O)[C@H](C)NC(=O)[C@H](CCCCN)NC(=O)[C@H](CCCCN)NC(=O)[C@H](CC(C)C)NC(=O)[C@H](CC(C)C)NC(=O)[C@H](CCC(=O)O)NC(=O)[C@H](CCC(=O)O)NC(=O)[C@@H](NC(=O)[C@H](CC(N)=O)NC(=O)[C@H](C)NC(=O)[C@H](CCC(=O)O)NC(=O)[C@H](CC(C)C)NC(C)=O)[C@@H](C)CC)C(N)=O) [LP-51] |  | 72 °C |
| Ac-WEQKIEELLKKAEEQQKKNEEELKKLEK(Lauroyl)-NH2 [LP-81] |  | 74.1 °C |
| Ac-KIEELLKKAEEQQKKNEEELKKLEK(Stearoyl)-NH2 (SMILES CCCCCCCCCCCCCCCCCC(=O)NCCCC[C@H](NC(=O)[C@H](CCC(=O)O)NC(=O)[C@H](CC(C)C)NC(=O)[C@H](CCCCN)NC(=O)[C@H](CCCCN)NC(=O)[C@H](CC(C)C)NC(=O)[C@H](CCC(=O)O)NC(=O)[C@H](CCC(=O)O)NC(=O)[C@H](CCC(=O)O)NC(=O)[C@H](CC(N)=O)NC(=O)[C@H](CCCCN)NC(=O)[C@H](CCCCN)NC(=O)[C@H](CCC(N)=O)NC(=O)[C@H](CCC(N)=O)NC(=O)[C@H](CCC(=O)O)NC(=O)[C@H](CCC(=O)O)NC(=O)[C@H](C)NC(=O)[C@H](CCCCN)NC(=O)[C@H](CCCCN)NC(=O)[C@H](CC(C)C)NC(=O)[C@H](CC(C)C)NC(=O)[C@H](CCC(=O)O)NC(=O)[C@H](CCC(=O)O)NC(=O)[C@@H](NC(=O)[C@H](CCCCN)NC(C)=O)[C@@H](C)CC)C(N)=O) [LP-89] |  | 70 °C |
| Ac-EQKIEELLKKAEEQQKKNEEELKKLEK(Palmitoyl)-NH2 (SMILES CCCCCCCCCCCCCCCC(=O)NCCCC[C@H](NC(=O)[C@H](CCC(=O)O)NC(=O)[C@H](CC(C)C)NC(=O)[C@H](CCCCN)NC(=O)[C@H](CCCCN)NC(=O)[C@H](CC(C)C)NC(=O)[C@H](CCC(=O)O)NC(=O)[C@H](CCC(=O)O)NC(=O)[C@H](CCC(=O)O)NC(=O)[C@H](CC(N)=O)NC(=O)[C@H](CCCCN)NC(=O)[C@H](CCCCN)NC(=O)[C@H](CCC(N)=O)NC(=O)[C@H](CCC(N)=O)NC(=O)[C@H](CCC(=O)O)NC(=O)[C@H](CCC(=O)O)NC(=O)[C@H](C)NC(=O)[C@H](CCCCN)NC(=O)[C@H](CCCCN)NC(=O)[C@H](CC(C)C)NC(=O)[C@H](CC(C)C)NC(=O)[C@H](CCC(=O)O)NC(=O)[C@H](CCC(=O)O)NC(=O)[C@@H](NC(=O)[C@H](CCCCN)NC(=O)[C@H](CCC(N)=O)NC(=O)[C@H](CCC(=O)O)NC(C)=O)[C@@H](C)CC)C(N)=O, N-terminally truncated, based on LP-52) [LP-62] |  | > 70 °C |
| Ac-QKIEELLKKAEEQQKKNEEELKKLEK(Palmitoyl)-NH2 (SMILES CCCCCCCCCCCCCCCC(=O)NCCCC[C@H](NC(=O)[C@H](CCC(=O)O)NC(=O)[C@H](CC(C)C)NC(=O)[C@H](CCCCN)NC(=O)[C@H](CCCCN)NC(=O)[C@H](CC(C)C)NC(=O)[C@H](CCC(=O)O)NC(=O)[C@H](CCC(=O)O)NC(=O)[C@H](CCC(=O)O)NC(=O)[C@H](CC(N)=O)NC(=O)[C@H](CCCCN)NC(=O)[C@H](CCCCN)NC(=O)[C@H](CCC(N)=O)NC(=O)[C@H](CCC(N)=O)NC(=O)[C@H](CCC(=O)O)NC(=O)[C@H](CCC(=O)O)NC(=O)[C@H](C)NC(=O)[C@H](CCCCN)NC(=O)[C@H](CCCCN)NC(=O)[C@H](CC(C)C)NC(=O)[C@H](CC(C)C)NC(=O)[C@H](CCC(=O)O)NC(=O)[C@H](CCC(=O)O)NC(=O)[C@@H](NC(=O)[C@H](CCCCN)NC(=O)[C@H](CCC(N)=O)NC(C)=O)[C@@H](C)CC)C(N)=O, N-terminally truncated, based on LP-52; also called P63 with C16) [LP-63] |  | > 70 °C |
